{
  "source": "patent US5082772A",
  "about": "“Process for preparing deacetylcephalosporin C” (priority 1988, dated 1992)",
  "key": {"[1]": {"assay": "Stability (half-life) of native enzyme", "format": "physicochemical, Streptomyces clavuligerus", "text": "The purified native enzyme obtained from cell-free extracts of S. clavuligerus can be partially stabilized by phenylmethylsulfonyl fluoride and ethanol."}, "[2]": {"assay": "Isoelectric points of purified enzyme", "format": "physicochemical, Streptomyces clavuligerus", "settings": "two distinct points"}, "[3]": {"target": "T1, recombinantly produced DAOC synthase (Streptomyces clavuligerus, UniProt P18548)", "T1 construct": "made in house; host or cells: Escherichia coli K12 JM109 (plasmid pOW382)", "assay": "Kinetics of recombinant enzyme (Lineweaver-Burk)", "format": "biochemical", "settings": "pH 7.0, 50 mM HEPES buffer, 36° C.", "description": "The kinetics of the native enzyme and recombinant enzyme were determined under the optimal reaction conditions for the enzyme, i.e., at pH 7.0 in 50 mM HEPES buffer at 36° C."}},
  "note": "Where “and” joins values, the source holds several entries; their conditions need not be identical. Equal values may be shown once.",
  "data": [
    {"molecule": "purified native enzyme: DAOC synthase obtained from cell-free extracts of S. clavuligerus (protein, UniProt P18548 1-311, looked up) Deacetoxycephalosporin C …: MDTTVPTFSLAELQQGLHQDEFRRCLRDKGLFYLTDCGLTDTELKSAKDLVIDFFEHGSEAEKRAVTSPVPTMRRGFTGLESESTAQITNTGSYSDYSMCYSMGTADNLFPSGDFERIWTQYFDRQYTASRAVAREVLRATGTEPDGGVEAFLDCEPLLRFRYFPQVPEHRSAEEQPLRMAPHYDLSMVTLIQQTPCANGFVSLQAEVGGAFTDLPYRPDAVLVFCGAIATLVTGGQVKAPRHHVAAPRRDQIAGSSRTSSVFFLRPNADFTFSVPLARECGFDVSLDGETATFQDWIGGNYVNIRRTSKA", "values": [
      {"measurement": "half-life", "setting": "[1]; not stabilized", "value": 20, "unit": "h"},
      {"measurement": "half-life", "setting": "[1]; stabilized by phenylmethylsulfonyl fluoride and ethanol", "value": 48, "unit": "h"}
    ]},
    {"molecule": "purified enzyme: purified deacetoxycephalosporin C synthase of S. clavuligerus (protein, UniProt P18548 1-311, looked up) Deacetoxycephalosporin C …: MDTTVPTFSLAELQQGLHQDEFRRCLRDKGLFYLTDCGLTDTELKSAKDLVIDFFEHGSEAEKRAVTSPVPTMRRGFTGLESESTAQITNTGSYSDYSMCYSMGTADNLFPSGDFERIWTQYFDRQYTASRAVAREVLRATGTEPDGGVEAFLDCEPLLRFRYFPQVPEHRSAEEQPLRMAPHYDLSMVTLIQQTPCANGFVSLQAEVGGAFTDLPYRPDAVLVFCGAIATLVTGGQVKAPRHHVAAPRRDQIAGSSRTSSVFFLRPNADFTFSVPLARECGFDVSLDGETATFQDWIGGNYVNIRRTSKA", "values": [
      {"measurement": "isoelectric points", "setting": "[2]", "value": "5.3±0.2 and 6.1±0.2"}
    ]},
    {"molecule": "recombinant synthase: S. clavuligerus DAOC synthase (expandase) produced in recombinant E. coli and purified (protein, UniProt P18548 1-311, looked up, recombinant, expressed in E. coli, S. clavuligerus DAOC synthase (expandase) produced in recombinant E. coli and purified) Deacetoxycephalosporin C …: MDTTVPTFSLAELQQGLHQDEFRRCLRDKGLFYLTDCGLTDTELKSAKDLVIDFFEHGSEAEKRAVTSPVPTMRRGFTGLESESTAQITNTGSYSDYSMCYSMGTADNLFPSGDFERIWTQYFDRQYTASRAVAREVLRATGTEPDGGVEAFLDCEPLLRFRYFPQVPEHRSAEEQPLRMAPHYDLSMVTLIQQTPCANGFVSLQAEVGGAFTDLPYRPDAVLVFCGAIATLVTGGQVKAPRHHVAAPRRDQIAGSSRTSSVFFLRPNADFTFSVPLARECGFDVSLDGETATFQDWIGGNYVNIRRTSKA", "values": [
      {"measurement": "Vmax", "setting": "[3]", "value": "0.432 μmol DAOC formed/min/mg protein"}
    ]}
  ]
}
